Data: paper PMC9029856, “Impact of Different [Tc(N)PNP]-Scaffolds on the Biological Properties of the Small cRGDfK Peptide: Synthesis, In Vitro and In Vivo Evaluations” (Molecules, 2022)

Experiments:
[1] = assay type: physicochemical
Method: To explore the impact of the PNP ligand on the lipophilicity of the complexes, Log Ps in a mixture of n-octanol and PBS were determined. The lipophilicity decreased in the order ^99mTc1 > ^99mTc2 > ^99mTc3. The lipophilic character of each compound correlated well with the corresponding HPLC retention time and protein binding behavior.
Determination of log P values. n-Octanol/PBS partition coefficients were determined by vortex mixing (20 min) 3.0 mL of n-octanol, 3.0 mL of PBS and 100 µL of the radiolabeled compound purified as above. After centrifugation (3000 g for 10 min), aliquots (100 µL) of both the organic and the aqueous phases were collected and counted with a γ-counter.

[2] = system: serum proteins; assay type: in vitro ADME
Method: Thus, to have some predictive indications of the metabolic outcome of our compounds, the binding to serum proteins and the enzymatic biotransformation of ^99mTc1–3 in blood and tissue homogenates were assessed in vitro by incubating the purified compounds at 37 °C in human and mouse sera as well as in murine liver and kidney homogenates.
Protein Binding. The affinity of the ^99mTc(N) complexes toward the serum proteins was evaluated by chromatographic methods.
Upon incubation, 25 µL of each sample was withdrawn and loaded on a pre-spun (735× g for 2 min) Sephadex G-50 mini-column. The column was centrifuged at 735 × g for 1 min. The collected eluate and the column were counted in a NaI-scintillation counter. The protein-bound complex was calculated as the percentage of the total activity.

[3] = Cysteine (Cys) and Glutathione (GSH) challenge; assay type: physicochemical; settings: 37 °C, pH 7.4, 24 h; for % RCP in challenge with L-cysteine: excess free L-cysteine (10 mM); for % RCP in challenge with GSH: excess glutathione
Method: The inertness of the radioconjugates under conditions relevant for in vivo applications were assessed by evaluating the stability of ^99mTc1–3 in solution and after incubation (37 °C) with transchelating agents (glutathione and L-cysteine, 10–1 mM, pH 7.4).
Cysteine (Cys) and Glutathione (GSH) Challenge. Challenge experiments were carried out with the purified complex using an excess of Cys or GSH. An aliquot (50 µL) of an aqueous stock solution of cysteine hydrochloride (10 mM or 2 mM) was added to a propylene test tube containing PBS (400 µL, pH 7.4) and the relevant [^99mTc(N)(H2NS-cRGDfK)(PNP)]^+ complex (50 µL). The mixture was vortexed and incubated at 37 °C for 24 h. A control reaction containing an equal volume of water, instead of cysteine hydrochloride, was studied in parallel. At 0.5, 1, 3, and 24 h, aliquots of the reaction mixture were withdrawn and analyzed by HPLC chromatography. A similar procedure was applied using GSH (50 µL, 10 mM) as challenger.

[4] = system: human melanoma M21 (αvβ3 positive) cells; assay: Cell uptake and internalization in M21 cells; assay type: cell-based; settings: for cell uptake (sum of surface bound and internalized radioactivity), blocked: M21 blocked by an excess of cold cRGDfK; for cell uptake (sum of surface bound and internalized radioactivity), blocked / cell uptake (sum of surface bound and internalized radioactivity): 37 °C, 90 min; for cell uptake (sum of surface bound and internalized radioactivity): M21 unblocked; for specific/nonspecific ratio, internalized radioactivity only: melanoma cell lines
Method: Cell uptake and internalization studies were performed on receptor-positive human melanoma M21 (expressing high levels of αvβ3 integrin and moderate level of integrin αvβ5), human breast cancer MCF7 (exclusively expressing αvβ5), and receptor-negative human melanoma M21L cell lines. The expression of αvβ3 and αvβ5 by cells was already evaluated by flow cytometry (Table 2). The stability of each radiolabeled peptide in the culture media before and after cell exposure was assessed.
Experiments were conducted in suspension at 37 °C. The working conditions were set up to avoid cell damage and/or death. With the use of these information, the cells were pre-incubated in sterile glass tubes at 37 °C for 10 min, in the presence or not of cRGDfK pentapeptide (50 µL; 1.65 mM).
Then, 1 mL of the cell suspension (1 × 10^6 cells/mL) was incubated with intermittent agitation with 10 µL (10 µCi) of ^99mTc1–3. At 90 min, the cells were moved in Eppendorf microcentrifuge tubes (1.5 mL) and the incubation was interrupted by centrifugation (3000 rpm for 5 min at 10 °C). The supernatant (S1) was separated from the pellet. The cell pellet was treated 10 min at room temperature with saline acetate buffer (CH3COOH 0.2M/NaCl 0.5 M) to remove the membrane-bound compound. After centrifugation (3000 rpm for 10 min at 10 °C), the supernatant (S2) was separated from the pellet (P1), and each fraction was collected, placed in a separated counting tube, and the activity was measured using a NaI counter (Cobra II, Packard) to estimate both the cell uptake and the internalized fraction.
The uptake of complexes was expressed as percentage cell uptake of the total activity on 10^6 cells (% cell uptake/10^6 cells).
All assessments were conducted in triplicate for three experiments.

[5] = set-up: species or system Sprague Dawley rats; settings: rat, in vivo
Method: As expected, MRT values of liver and kidneys were much higher than the dose of stomach, spleen, lung, and heart.
The time–activity curves of the main organs were obtained using the biodistribution data (%IA/organ) as input for the CoKiMo spreadsheet software. Then, the organ mean residence times (MRT) were computed by integration of the organ activity curves, extrapolated until 5 half-lives of Tc-99m (30 h) and corrected for its physical decay, to evaluate the pharmacokinetic profile of each radiolabeled peptide.

## [Tc(N)(H2NS-cRGDfK)(PNP3)]^+ [^99mTc1]
[1]
  Log P: −1.72 ^1
[2]
  % Protein Binding: 14.95 ± 1.95%
[3]
  % RCP in challenge with L-cysteine: > 95%
  % RCP in challenge with GSH: > 95%
[4]
  cell uptake (sum of surface bound and internalized radioactivity), blocked: 2.15 ± 0.17 % cell uptake/10^6 cells
  cell uptake (sum of surface bound and internalized radioactivity): 2.88 ± 0.09 % cell uptake/10^6 cells
  specific/nonspecific ratio, internalized radioactivity only: 4.5
[5]
  MRT Blood: 14.7 min
  MRT Heart: 0.3 min
  MRT Kidney: 9.2 min
  MRT Liver: 30.5 min
  MRT Lung: 0.9 min
  MRT Spleen: 1.2 min
  MRT Stomach: 1.5 min

## [Tc(N)(H2NS-cRGDfK)(PNP3OH)]^+ [^99mTc3]
[1]
  Log P: −2.39
[2]
  % Protein Binding: 7.91 ± 2.01%
[3]
  % RCP in challenge with L-cysteine: 27.31 ± 3.6%
  % RCP in challenge with GSH: 73.33 ± 2.8%
[4]
  cell uptake (sum of surface bound and internalized radioactivity), blocked: 1.41 ± 0.25 % cell uptake/10^6 cells
  cell uptake (sum of surface bound and internalized radioactivity): 2.60 ± 0.36 % cell uptake/10^6 cells
  specific/nonspecific ratio, internalized radioactivity only: 4.29
[5]
  MRT Blood: 14.5 min
  MRT Heart: 0.4 min
  MRT Kidney: 36.7 min
  MRT Liver: 26.7 min
  MRT Lung: 1.6 min
  MRT Spleen: 0.8 min
  MRT Stomach: 2.1 min

## [Tc(N)(H2NS-cRGDfK)(PNP43)]^+ [^99mTc2]
[1]
  Log P: −1.95
[2]
  % Protein Binding: 13.63 ± 2.95%
[3]
  % RCP in challenge with L-cysteine: > 95%
  % RCP in challenge with GSH: > 95%
[4]
  cell uptake (sum of surface bound and internalized radioactivity), blocked: 1.48 ± 0.12 % cell uptake/10^6 cells
  cell uptake (sum of surface bound and internalized radioactivity): 2.57 ± 0.42 % cell uptake/10^6 cells
  specific/nonspecific ratio, internalized radioactivity only: 3.28
[5]
  MRT Blood: 16.9 min
  MRT Heart: 0.4 min
  MRT Kidney: 30.7 min
  MRT Liver: 25.9 min
  MRT Lung: 1.6 min
  MRT Spleen: 0.8 min
  MRT Stomach: 2.1 min
